Values joined by “and” are separate entries in the source; they are usually repeats but may differ in a detail not shown here. Equal entries are not always repeated. “Also recorded” adds a separate entry of the source.
T1: Alcohol Dehydrogenase (TbADH) (Thermoanaerobacter brockii, UniProt P14941)
T1 sequence (P14941 1-352): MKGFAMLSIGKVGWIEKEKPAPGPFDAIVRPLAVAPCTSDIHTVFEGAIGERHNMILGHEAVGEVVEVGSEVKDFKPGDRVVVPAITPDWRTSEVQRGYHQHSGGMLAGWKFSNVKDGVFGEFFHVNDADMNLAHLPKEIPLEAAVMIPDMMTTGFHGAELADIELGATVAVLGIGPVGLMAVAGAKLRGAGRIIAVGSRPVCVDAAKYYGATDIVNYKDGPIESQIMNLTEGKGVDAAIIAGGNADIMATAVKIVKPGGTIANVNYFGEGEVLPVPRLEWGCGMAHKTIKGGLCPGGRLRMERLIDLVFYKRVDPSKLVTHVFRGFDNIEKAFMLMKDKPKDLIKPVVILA

T2: brockii alcohol dehydrogenase (TbADH) (Thermoanaerobacter brockii, UniProt P14941)
T2 sequence (P14941 1-352): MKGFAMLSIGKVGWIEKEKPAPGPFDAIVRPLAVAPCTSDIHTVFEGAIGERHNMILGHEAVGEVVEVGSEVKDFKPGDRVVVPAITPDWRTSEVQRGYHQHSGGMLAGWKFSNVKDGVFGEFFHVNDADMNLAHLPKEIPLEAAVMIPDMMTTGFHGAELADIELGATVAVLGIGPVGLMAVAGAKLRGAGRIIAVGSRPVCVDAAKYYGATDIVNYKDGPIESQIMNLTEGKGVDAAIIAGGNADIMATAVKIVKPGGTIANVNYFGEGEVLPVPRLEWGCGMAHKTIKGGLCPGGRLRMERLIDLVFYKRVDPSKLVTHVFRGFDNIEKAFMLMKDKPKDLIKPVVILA

B1: 6C6: monoclonal antibody, IgG2a, raised against the hapten Imisdp; MMP-2 and MMP-9 inhibitory; SEQ ID NO: 1 (protein)
chain: CMETTQTPLSLPVSLGDQASISCRSSQSIVHSNGNTFLEWYLQKPGQSPKLLIYKVSNCRFSGVPDRFSGSGSGTDFTLKISRVEAEDLGVYYCFQASHVPPTFGGG
modifications: 6c6 mAb light chain
B2: 13E11: monoclonal antibody, IgG2b, raised against the hapten CoTCPP (antibody, V domains shown)
VH: EGGGLVQPGGSRKLSCAASGFTFTSFGMHWVRQAPEKGLEWVAYISSGNEIIYYADTVKGRFTISRDNPKNTLFLQMTSLRSEDTAMYYCARNYYRYGFYVMDYWGQG
VL: EIVVTQSPAILSASPGEKVTMTCRASSSVSYMHWYQQKPGSSPKPWIYATSNELASGVPARFSGSGSGTSYSLTISRVEAEDAATYYCQQWISNPLTFGAG
modifications: 13E11 mAb heavy chain; 13E11 mAb light chain
notes: monoclonal antibody, IgG2b, raised against the hapten CoTCPP

Key:
MMP-9 = assay: kinetic assay with fluorogenic peptide substrate, MMP-9; assay type: biochemical, human; conditions: for mode of inhibition of MMP-9: Lineweaver-Burk plot; for IC50: Table 4; for inhibition of proteolytic activity of MMP-9: continuous fluorometric assay
Chain of MMP-9 (P14780 107-444 limits assumed): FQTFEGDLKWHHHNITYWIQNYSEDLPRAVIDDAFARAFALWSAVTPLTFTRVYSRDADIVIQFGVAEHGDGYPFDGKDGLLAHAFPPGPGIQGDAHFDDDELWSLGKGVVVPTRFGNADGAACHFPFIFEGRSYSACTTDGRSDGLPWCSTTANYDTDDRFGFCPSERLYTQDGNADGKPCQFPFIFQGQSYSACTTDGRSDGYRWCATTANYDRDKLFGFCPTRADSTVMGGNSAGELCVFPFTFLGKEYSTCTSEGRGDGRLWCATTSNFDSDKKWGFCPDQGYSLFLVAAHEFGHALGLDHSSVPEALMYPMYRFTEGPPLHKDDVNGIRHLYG

[1] = competitive ELISA, affinity of mAbs toward their immunizing hapten; conditions: concentration of soluble hapten for 50% binding
Method: Supernatants of the growing hybridomas were screened for antibodies reactive with ZnTCPP, CoTCPP or Imisdp using direct ELISA in which respective hapten-BSA (3 μg/ml in PBS) was coated to Nunc maxisorp plates. The coating was performed at 4° C. overnight and incubation with antibodies at 20° C. for 1 h. HRP-conjugated anti-mouse mAb (Sigma) was used as the secondary antibody and 2,2′-azino-bis (3-ethylbenzthiazoline-6-sulphonic acid, ABTS, Sigma) was used as substrate. PBS containing 0.005% v/v Tween 20 (PBST) was used as washing reagent. The dilution buffer was PBS. A602 was recorded by microplate reader in […]luor Plus spectrometer (Tecan, Austria). As control supernatants were incubated with BSA coated plates in the same manner Absorbance values above 0.5 millioptical density were considered as positive.
Different dilutions of hybridoma supernatant were incubated with hapten-BSA coated plates following the steps described earlier. Titration curve was plotted and the titer dilution was determined at 50% of binding. Supernatants diluted to the titer concentration were preincubated with soluble ZnTCPP, CoTCPP or Imisdp compounds for 30 minutes and then transferred to hapten-coated microtiter plates following the steps described previously. The estimated dissociation constant was the concentration of soluble hapten required to attain 50% binding.

Carbonic Anhydrase (CA) [2] = assay: functional inhibition experiment, Carbonic Anhydrase; assay type: biochemical; conditions: for inhibition of Carbonic Anhydrase: in vitro functional inhibition
Text: (§1) The selectivity of anti CoTCPP and anti Imisdp was further challenged, by testing their cross reactivity with non related zinc dependent enzymes—Carbonic Anhydrase (CA) and brockii alcohol dehydrogenase (TbADH). Similar to active MMPs CA contains a zinc ion that is tetrahedraly coordinated to three histidine residues and a water molecule, TbADH contains a catalytic zinc ion that is tetraheadrally coordinated to four different amino acid residues, histidine, cysteine, aspartate and glutamate. […] Anti CoTCPP mAb was also tested for its cross reactivity with related physiological porphyrins such as the Heme group within Myoglobin and Hemoglobin and vitamin.
(§2) 6C6 was also tested for cross reactivity with different zinc dependent metalloproteases, Carbonic Anhydrase and Alcohol Dehydrogenase. Analogous to MMPs, Carbonic Anhydrase (CA) has a catalytic zinc ion tetrahedraly coordinated to three histidine ligands and a water molecule. Consequently, several potent small molecule MMP inhibitors (of the sulfonylated amino acid hydroxamate type) also act as efficient CA inhibitors and vice versa. Some N-hydroxysulfonamides investigated previously as CA inhibitors also show inhibitory properties against MMPs [Scozzafava, A. and C. T. Supuran, J Med Chem, 2000. 43(20): p. 3677-87]. The active site of Alcohol Dehydrogenase from thermophilic bacterium (TbADH) includes a different zinc-protein moiety in which zinc is bound to histidine, cysteine, aspartate and glutamate located inside a crevice.

TACE (ADAM-17) = TACE (ADAM-17) (Homo sapiens, UniProt P78536); assay: kinetic assay with fluorogenic peptide QF-45, TACE; assay type: biochemical; conditions: for inhibitory effect toward TACE: in-vitro fluorescence enzymatic activity assay
Chain of TACE (ADAM-17) (P78536 215-824, species assumed): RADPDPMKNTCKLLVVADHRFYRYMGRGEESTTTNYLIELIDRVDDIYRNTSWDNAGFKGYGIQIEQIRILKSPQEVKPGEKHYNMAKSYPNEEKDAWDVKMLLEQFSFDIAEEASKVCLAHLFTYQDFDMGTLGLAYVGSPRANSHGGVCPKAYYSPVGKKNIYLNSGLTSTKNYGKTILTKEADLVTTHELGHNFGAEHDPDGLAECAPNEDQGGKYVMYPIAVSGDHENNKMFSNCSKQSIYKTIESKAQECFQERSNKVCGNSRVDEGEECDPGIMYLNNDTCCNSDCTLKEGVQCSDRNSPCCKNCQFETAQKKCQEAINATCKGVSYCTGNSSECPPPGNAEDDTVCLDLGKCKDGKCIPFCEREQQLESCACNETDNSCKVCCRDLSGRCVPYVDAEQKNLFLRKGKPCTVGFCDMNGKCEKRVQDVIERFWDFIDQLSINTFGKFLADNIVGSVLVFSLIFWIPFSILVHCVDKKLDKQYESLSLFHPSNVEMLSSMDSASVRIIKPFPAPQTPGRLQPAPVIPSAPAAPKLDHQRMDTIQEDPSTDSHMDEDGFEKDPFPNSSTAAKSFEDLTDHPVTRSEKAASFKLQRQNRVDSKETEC

MMP-2 = assay: kinetic assay with fluorogenic peptide substrate, MMP-2; assay type: biochemical, human; conditions: for inhibition of proteolytic activity of MMP-2: continuous fluorometric assay
[3] = target: T1, Alcohol Dehydrogenase (TbADH); assay: functional inhibition experiment, alcohol dehydrogenase; assay type: biochemical, thermophilic bacterium; conditions: for inhibition of TbADH: in vitro functional inhibition
Text: as §1, §2

Carbonic Anhydrase (CA) [4] = assay: immuno affinity binding experiment, Carbonic Anhydrase
Text: as §1

[5] = system: cell surface gelatinolytic activity of HT1080 cells; assay: in situ zymography with DQ-gelatin; assay type: cell-based, human
Method: To localize net gelatinolytic activity of MMPs by in situ zymography, fluorescein isothiocyanate-labeled DQ gelatin that is intramolecularly quenched (Molecular Probes) was used as a substrate for degradation by gelatinases. Proteolysis by gelatinases yields cleaved fluorescein isothiocyanate-gelatin peptides and the localization of this fluorescence indicates the sites of net gelatinolytic activity. Briefly, Human fibrosarcoma HT1080 cells (which produce MMP-2, MMP-9 and MT1-MMP) were plated on 12-mm coverslips. […] Untreated cells served as negative control for this experiment. Cells were washed with PBS and then incubated with zymography reaction buffer (0.05 M Tris-HCl, 0.15 M NaCl, 5 mM CaCl2, and 0.2 mM NaN3, pH 7.6, the high concentration of azide prevented the gelatin from being phagocytosed and thus allowing cell surface gelatinolytic activity to occur) containing 60 ug/ml DQ gelatin at 37° C. overnight. […] At the end of the incubation period, without fixation or further washes, gelatinolytic activity of the MMPs was localized and photographed by fluorescence microscopy and images were acquired by Spot digital camera.
To confirm the inhibitory activity of anti CoTCPP mAb at cellular level, the effect of the antibody was examined on gelatinolytic activity of human fibrosarcoma HT1080 cells that constitutively secrete MMP-2 and 9 by in situ zymography. To localize gelatinolytic activity of MMPs by in situ zymography, fluorescein isothiocyanate-labeled gelatin that is intramolecularly quenched (DQ-gelatin) was used as substrate. Proteolysis by gelatinases yields cleaved fluorescein isothiocyanate-gelatin peptides and the localization of this fluorescence indicates the sites of net gelatinolytic activity.

[6] = target: T2, brockii alcohol dehydrogenase (TbADH); assay: immuno affinity binding experiment, alcohol dehydrogenase; design: species or system thermophilic bacterium
Text: as §1

MT1-MMP (MMP-14) = MT1-MMP (MMP-14) (Homo sapiens, UniProt P50281); assay: kinetic assay with fluorogenic peptide substrate, MT1-MMP; assay type: biochemical; conditions: for Ki: fit to competitive inhibition, fluorogenic peptide substrate
[7] = target: Heme group within Hemoglobin (Homo sapiens, UniProt P68871+P69905); assay: cross reactivity, competitive ELISA and immuno affinity assay, Hemoglobin; assay type: binding
Chain of Heme group within Hemoglobin (P69905 2-142 limits assumed): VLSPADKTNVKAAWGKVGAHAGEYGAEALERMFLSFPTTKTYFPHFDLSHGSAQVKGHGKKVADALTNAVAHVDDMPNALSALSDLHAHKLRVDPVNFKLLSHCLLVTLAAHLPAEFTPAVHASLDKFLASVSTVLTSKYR
Chain of Heme group within Hemoglobin (P68871 2-147 limits assumed): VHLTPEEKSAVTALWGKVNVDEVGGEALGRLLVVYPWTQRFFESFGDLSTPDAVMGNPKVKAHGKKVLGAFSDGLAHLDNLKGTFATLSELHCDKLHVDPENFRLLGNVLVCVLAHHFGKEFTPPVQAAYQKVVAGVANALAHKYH
Text: as §1

| Molecule | mode of inhibition of MMP-9 (MMP-9) | IC50 (MMP-9) | inhibition of proteolytic activity of MMP-9 (MMP-9) | Kd [1] | inhibition of Carbonic Anhydrase (Carbonic Anhydrase (CA) [2]) | inhibitory effect toward TACE (TACE (ADAM-17)) | inhibition of proteolytic activity of MMP-2 (MMP-2) | inhibition of TbADH [3] | binding to Carbonic Anhydrase (Carbonic Anhydrase (CA) [4]) | binding to TbADH [6] | also measured |
| --- | --- | --- | --- | --- | --- | --- | --- | --- | --- | --- | --- |
| B1 | competitive inhibition profile | 4.5 ± 0.2 µM | inhibited | 0.09 µM | no binding or inhibition | did not display inhibitory effect | inhibited | no binding or inhibition | no binding | no binding | inhibitory effect toward Carbonic Anhydrase (Carbonic Anhydrase (CA) [2]; mAb concentrations up to 30 μM): no inhibitory effect; IC50 (TACE (ADAM-17); Table 4): > 30 µM; inhibition of TACE (TACE (ADAM-17); mAb concentrations of up to 30 μM): neither MMP-7 nor TACE were inhibited to any measurable extent; IC50 (MMP-2; Table 4): 3 ± 0.2 µM; inhibitory effect toward TbADH ([3]; mAb concentrations up to 30 μM): no inhibitory effect; cell surface gelatinolytic activity ([5]; 5 μM mAb): significantly decreased; also recorded: significantly inhibited; IC50 (MT1-MMP (MMP-14); Table 4): 14.4 ± 0.7 µM; Ki (MT1-MMP (MMP-14)): 14.4 µM and 15 µM; Ki (MT1-MMP (MMP-14); listed as anti Imisdp mAb): 10 µM |
| B2 | competitive inhibitor | 15 ± 0.8 µM | inhibited | 0.09 µM | no binding or inhibition | no inhibitory effect | inhibited | no binding or inhibition | no binding | no binding | cross reactivity with Hemoglobin [7]: No cross was detected; cell surface gelatinase activity ([5]; 1 μM mAb, listed as anti CoTCPP mAb): reduced; also recorded: significantly inhibited; inhibitory effect toward MT1-MMP (MT1-MMP (MMP-14); in-vitro fluorescence enzymatic activity assay): no inhibitory effect |

Source: patent US9902783B2, “Antibodies and pharmaceutical compositions containing same useful for inhibiting activity of metalloproteins” (Yeda Research and Development Co. Ltd., priority 2007, dated 2018)
